Key:
[1] = molecular target: T1, PLC-γ1 (Phospholipase C-γ1), 1–1219 (UniProt P19174 1-1219); test: ITC; VP-ITC; 5°C; 20 mM Hepes (pH 7.4), 100 mM NaCl, 0.1 mM DTT; 4 μM in the cell, 40 μM in the syringe; single binding site fit with 1:1 stoichiometry; 3 independent experiments; settings: both partners purified
T1 construct: the text calls it full length PLC-γ1; also called full length PLC-γ1
T1 sequence (looked up): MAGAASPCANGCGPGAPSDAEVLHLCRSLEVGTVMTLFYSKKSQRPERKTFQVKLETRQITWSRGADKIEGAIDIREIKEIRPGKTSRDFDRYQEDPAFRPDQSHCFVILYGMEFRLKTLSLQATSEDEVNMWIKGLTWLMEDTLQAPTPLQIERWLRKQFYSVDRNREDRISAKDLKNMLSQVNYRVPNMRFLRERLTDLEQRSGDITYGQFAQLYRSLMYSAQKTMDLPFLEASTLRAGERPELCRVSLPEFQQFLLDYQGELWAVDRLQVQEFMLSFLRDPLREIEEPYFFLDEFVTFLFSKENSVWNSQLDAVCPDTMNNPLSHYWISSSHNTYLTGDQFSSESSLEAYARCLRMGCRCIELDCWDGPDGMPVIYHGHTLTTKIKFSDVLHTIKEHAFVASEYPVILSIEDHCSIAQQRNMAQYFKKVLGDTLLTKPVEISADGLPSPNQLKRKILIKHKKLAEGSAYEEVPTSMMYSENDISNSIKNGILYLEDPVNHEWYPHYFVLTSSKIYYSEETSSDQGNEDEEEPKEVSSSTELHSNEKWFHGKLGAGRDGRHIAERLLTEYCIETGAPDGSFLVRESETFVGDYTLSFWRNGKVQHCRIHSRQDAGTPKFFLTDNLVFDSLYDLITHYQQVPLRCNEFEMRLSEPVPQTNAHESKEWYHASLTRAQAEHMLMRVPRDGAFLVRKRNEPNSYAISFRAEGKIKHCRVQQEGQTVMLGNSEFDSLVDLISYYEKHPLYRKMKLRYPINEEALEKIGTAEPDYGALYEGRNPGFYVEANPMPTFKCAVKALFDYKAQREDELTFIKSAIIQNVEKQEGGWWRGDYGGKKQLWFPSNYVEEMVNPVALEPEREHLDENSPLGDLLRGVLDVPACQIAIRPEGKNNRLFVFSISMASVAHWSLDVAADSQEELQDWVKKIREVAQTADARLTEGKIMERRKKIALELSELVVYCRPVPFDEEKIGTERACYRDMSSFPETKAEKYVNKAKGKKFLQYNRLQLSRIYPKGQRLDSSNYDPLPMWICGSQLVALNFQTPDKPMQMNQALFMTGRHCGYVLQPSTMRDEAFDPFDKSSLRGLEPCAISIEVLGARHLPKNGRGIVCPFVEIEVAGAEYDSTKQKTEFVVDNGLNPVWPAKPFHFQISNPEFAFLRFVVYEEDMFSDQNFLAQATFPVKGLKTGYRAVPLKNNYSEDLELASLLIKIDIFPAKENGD

[2] = molecular target: T1, PLC-γ1 (Phospholipase C-γ1), 1–1219; test: cell-based or functional assay

B1: SLP-76^WT polypeptide (aa 103–258, Y113F, Y173F) (domain or fragment, UniProt Q13094 103-258, looked up)
chain: GGWSSFEEDDFESPNDDQDGEDDGDYESPNEEEEAPVEDDADYEPPPSNDEEALQNSILPAKPFPNSNSMFIDRPPSGKTPQQPPVPPQRPMAALPPPPAGRNHSPLPPPQTNHEEPSRSRNHKTAKLPAPSIDRSTKPPLDRSLAPFDREPFTLG
notes: wild-type proline-rich region; not shown: His6, N-terminal, cleaved; GST, N-terminal, cleaved
For B1, the Kd [1] was 2.32 µM, the dH [1] was -3.8 kcal/mol and the “PLC-γ1 activity (IP3 from PIP2-bearing liposomes): LAT-Gads-SLP-76^WT-PLC-γ1 tetramer against PLC-γ1 with phospho-LAT alone” value [2] was 1.7 fold.

B2: SLP-76 PRR peptide (aa 185–200), wild type (peptide, UniProt Q13094 185-200, looked up)
peptide: QPPVPPQRPMAALPPP
notes: SLP-76 proline-rich region, residues 185–200; also called SLP-76 185–200 (WT); SLP-76 PRR_(185–200) peptide
A Kd [1] of 3.99 µM and a dH [1] of -3.3 kcal/mol were found for B2 in this work.

Source: publication doi:10.1101/2025.09.11.675682, “Weak SLP-76-PLC-γ1 interaction in the LAT-nucleated multi-protein complex fine-tunes TCR signal strength to optimize T cell responsiveness” (bioRxiv, 2025)
